According to the RNAGym collection of RNA variant scans (doi:10.1073/pnas.2313332121):

B1: TPR t1 (parent)
chain: GACCAAUCUGCCCUCAGAGCUCGAGAACAUCUUCGGAUGCAGAGGAGGCAGGCUUCGGUGGCGCGAUAGCGCCAACGUCCUCAACCUCCAAUGCAUCCCACCACAUGAUGAUGCCUGAAGAGCCUUGGUUUUUUG

Variants of: B1
Assay: polymerase ribozyme fitness, log enrichment relative to wild type (log ratio); higher = more active; in vitro selection for triplet polymerase activity
How it was run: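 Mutant libraries were PCR-built and transcribed for each subunit of a heterodimeric triplet polymerase ribozyme and selected for one round in triplicate at −7 °C, frozen, before gel excision of extended constructs and streptavidin-bead capture. Input and output libraries were Illumina-sequenced, keeping genotypes with ≥10 input reads and ≥1 read per output. Fitness is a logarithmic ratio of genotype to wild-type enrichment, in base 2, using inverse-variance-weighted replicate averages.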

Row | Variant | polymerase ribozyme fitness (log ratio)
1 | C102A A111G C115A A118U | -4.83
2 | U106A | 0.145
3 | U106C | -0.282
4 | U106G | -1.17
5 | C104U G127C | -1.03
6 | C104A G127A | -3.1
7 | C99U U129G | -3.83
8 | C101A U112A | 0.611
9 | C97U C101U C102A | -4.12
10 | A105U U112C | -1.65
11 | C97U C123A | 0.00246
12 | A105U U133A | -1.78
13 | C98U U106A G110U G120C | -2.16
14 | G107C A121U | -3.13
15 | C98A U112A | -3.24
16 | A105C G128C | -3.71
17 | C101A C115G U132C | -3.46
18 | A105C G120U | -2.25
19 | A105C G120C | -1.78
20 | C104A C114A | -4.74
21 | A108G U125G | -2.24
22 | C102U U125G | -1.4
23 | C99U C101A A121G C124G | -3.31
24 | U109A U134G | -5.32

Row | Variant | polymerase ribozyme fitness (log ratio)
25 | U96G U109C | -4.85
26 | C104G A119G | -6.88
27 | G107A U116C | -5.17
28 | C102G G120U | -6.6
29 | C102U U130G | -2.52
30 | C104U G120U | -0.787
31 | A108G C115U | -3.36
32 | C104U U106C G120U | -0.245
33 | C97G A111C | -4.02
34 | C102U C123A | -2.63
35 | C102U C123U | -0.21
36 | C102U U132C | -1.91
37 | C98A U109A | -5.81
38 | C101A U130G | -2.8
39 | U106A C115U G127U | -1.18
40 | A100U U130A | -0.606
41 | U106A U112A U129C | 0.363
42 | C98G C115A | -5.15
43 | G107A A121C | -3.64
44 | C101G A121C | -0.583
45 | U106A G135U | -0.228
46 | U109C A111C | -3.65
47 | A105C G110A C115U A119G | -6.05
48 | C99A G110U | -4.34

Row | Variant | polymerase ribozyme fitness (log ratio)
49 | C99A G110A | -5.17
50 | A103U C114U | -4.99
51 | A108U U112C | -5.97
52 | A108U U112A | -4.85
53 | U96C | 0.0976
54 | U96G | -0.532
55 | C104U G117U | -0.481
56 | U96G A111U | -4.9
57 | C104U U129C | -0.415
58 | C97U A118U | -2.1
59 | C99U A119U U130A | -3.7
60 | C101A U109A | -5.05
61 | A105C U116C | -4.81
62 | C98U U129C | -1.46
63 | U96G C124A | 1.39
64 | G107C | -5.46
65 | G107A | -4.86
66 | G107U | -4.78
67 | C102A G128C U132G G135U | -3.41
68 | A105C A121G | 0.5
69 | C97G U112A | -3.48
70 | C97G G120C | -4.64
71 | C102A U125C | -4.05
72 | C98A C124A | -2.34

Row | Variant | polymerase ribozyme fitness (log ratio)
73 | G107C G120U | -3.85
74 | A100U U132A | -0.727
75 | A100U U132C | -0.866
76 | C104A A119U | -2.35
77 | C101U G117U | -1.13
78 | C104A U112G C123G | -1.23
79 | C97U C104U A111U C124A | -2.15
80 | C102A C124G | 0.0453
81 | A105C G110A | -5.26
82 | A105C G110U | -3.75
83 | C98U A108G | -6.36
84 | A103C G120A | -3.52
85 | A103C G120U | -4.69
86 | C102G C104U | -6.12
87 | C104A G113C | -4.17
88 | C104G C124U | -6.14
89 | C97A C123U | -2.71
90 | C102A C124A U130A | -0.438
91 | C99U C115U | -4.48
92 | A103C A111U U116C | -4.99
93 | U96G A111G U125G | -1.74
94 | A103U A118G | -5.56
95 | A103U A118U | -4.32
96 | U106G G107A U133A | -5.4

Row | Variant | polymerase ribozyme fitness (log ratio)
97 | U109A G117U | -5.72
98 | U106A U109C | -3.27
99 | U106A C115G | -3.75
100 | A105G G113U | -5.05
101 | U106G C124A | 1.19
102 | G107A C114U | -3.83
103 | A103G A118G C124G | -5.79
104 | A105U G113C | -5.86
105 | C98U U112G | -3.32
106 | C97A G117U | -5.67
107 | C101A C115G | -2.5
108 | C101A C115A | -1.02
109 | C101A G117C A121U | -4.18
110 | C99U G120U | -3.34
111 | C101A G107A | -5.93
112 | G107U G113U | -6.69
113 | C97G G113C G122U | -5.4
114 | A103G U112C | -3.53
115 | U96C A118U U129C | -0.593
116 | C97U G128A | -2.66
117 | A105C U133A | -2.08
118 | C101A U131G | -1.9
119 | A105U C115U | -1.94
120 | U106G G117U | -4.18

Row | Variant | polymerase ribozyme fitness (log ratio)
121 | A105C U112C | 0.139
122 | C102A U109C | -6.22
123 | C98U G113U | -3.5
124 | C98U U130G | -0.947
125 | C104U C123A U125G | 1.28
126 | C97U C124G | 1.72
127 | G107A G120U | -4.71
128 | C99G C124U | -6.43
129 | C98A A111U G122A C124G | -6.05
130 | A100C C104U A121G | 1.96
131 | C99U U130A | -3.71
132 | A108G A111C | -1.58
133 | C104G A105U A111C G122A | -7.2
134 | C98A A121U | -2.52
135 | C101U U126G | -2.48
136 | U109A C114U A121C | -4.32
137 | A100U G113U C124U | -3.92
138 | C99A C124A | -4.35
139 | C104U A105C U131C | -2.36
140 | A100U G110A | -1.52
141 | C98G G135U | -6.54
142 | A105C U130C | -1.55
143 | C97U U116C | -0.713
144 | A103C C123A | -5.15

Row | Variant | polymerase ribozyme fitness (log ratio)
145 | C97U A103U | -5.3
146 | G107U A121U U132A | -2.5
147 | U106C G113U | -3.01
148 | C99U G110A | -5.27
149 | G107U C123G | -2.37
150 | C97U G120C | 0.554
151 | C97U G120U | -0.768
152 | C97U G120A | 0.391
153 | C98U U126G G128U | -2.42
154 | U106G U133G | -0.611
155 | C104A U130A | -2.46
156 | U96G C123G | 1.1
157 | C97U U109A | -2.09
158 | C97G C115G G120C | -5.54
159 | C102A C114A | -4.17
160 | C98U G110C U131A | -5.64
161 | U106C G127C | -1.07
162 | C98U A111C | -2.13
163 | C98U G120A | -0.67
164 | U106A U125G | -0.507
165 | C101G U112A | 0.152
166 | C97U C101A G122C C123A U125A | -1.66
167 | U109C C124A | -1.7
